Article PMC7057392 (ACS chemical neuroscience, 2020)

What was measured:
[1] = target: Cys-min α7 nAChR (human α7 nAChR containing only the C128-C142 and C190-C191 cysteines) (human) (UniProt P36544); assay: SPR
[2] = target: wild-type human α7 nicotinic acetylcholine receptor (human, UniProt P36544 23-502); assay: SPR

Kd [2]	Molecule	Kd [1]
	PDZ domain of PICK1 (first 126 amino acids of PICK1) (from UniProt Q9NRD5 1-126) (domain or fragment)	2600 nM
2500 ± 400 nM	PDZ domain of PICK1 (first 126 amino acids of PICK1) (domain or fragment, UniProt Q9NRD5 1-126, looked up) MFADLDYDIEEDKLGIPTVPGKVTLQKDAQNLIGISIGGGAQYCPCLYIVQVFDNTPAALDGTVAAGDEITGVNGRSIKGKTKVEVAKMIQEVKGEVTIHYNKLQADPKQGMSLDIVLKKVKHRLV	
